Test results from publication PMC11211662, “A novel alcohol dehydrogenase in the hyperthermophilic crenarchaeon Hyperthermus butylicus” (mLife, 2024).

Columns and labels:
Test in all cases: purified protein
purified protein [1] = substrate: CCCCO; assay type: biochemical, Hyperthermus butylicus; conditions: oxidation, 0.4 mM NADP+, 100 mM EPPS pH 9.0, 80 °C, anaerobic, pH 9.0
purified protein [2] = substrate: CCCC=O; assay type: biochemical, Hyperthermus butylicus; conditions: reduction, 0.2 mM NADPH, 100 mM PIPES pH 6.0, 80 °C, anaerobic, pH 6.0
purified protein [3] = substrate: CC(C)=O; assay type: biochemical, Hyperthermus butylicus; conditions: reduction, 0.2 mM NADPH, 100 mM PIPES pH 6.0, 80 °C, anaerobic, pH 6.0
purified protein [4] = substrate: CCCO; assay type: biochemical, Hyperthermus butylicus; conditions: oxidation, 0.4 mM NADP+, 100 mM EPPS pH 9.0, 80 °C, anaerobic, pH 9.0
purified protein [5] = substrate: CCC=O; assay type: biochemical, Hyperthermus butylicus; conditions: reduction, 0.2 mM NADPH, 100 mM PIPES pH 6.0, 80 °C, anaerobic, pH 6.0
purified protein [6] = substrate: CC=O; assay type: biochemical, Hyperthermus butylicus; conditions: reduction, 0.2 mM NADPH, 100 mM PIPES pH 6.0, 80 °C, anaerobic, pH 6.0
purified protein [7] = substrate: CCO; conditions: oxidation, 0.4 mM NADP+, 100 mM EPPS pH 9.0, 80 °C, anaerobic
purified protein [8] = substrate: CC(C)O; conditions: oxidation, 0.4 mM NADP+, 100 mM EPPS pH 9.0, 80 °C, anaerobic

B1: HbADH2 (Hyperthermus butylicus DSM 5456) (protein)
chain: MLRRLQSSLRDYVRKYIVRLNCNAGGTTCKPSSTECQRFLAEPNLPQALLLAGYRLLDCTCSSGGGVSIELVGTSGDTIPARLCLDCGSIFPALTLKAQLPLSTSIPPYRGPIQEAMLKTVETIAQFCAHRKGLPLLLDTVLAEPARMCKVKLGCRPIHISSFEKADLGTVSPRIKLPTILSWITLRLRKSIEIEAPWLCVESNNGALQLVCLSETCRFEVTHCGSVRLIHGKAIALPSSTRCSPALLHLVYLYGTLYKSIDDVNVKPCIWSMTGLAILGAWYSTGENGESMMLLVWNPLKKSKLHEIVFERHRIVEAKLTSPATWLEEQLIPQYNRLRIPLPPHGARLVYVRLRKLPRLLSKNANG
notes: native protein purified anaerobically from H. butylicus cell-free extract (DEAE-Sepharose, hydroxyapatite, phenyl-Sepharose); untagged; 367 residues deduced, 40,694 Da calculated; gene assigned by mass spectrometry of the gel band, not by recombinant expression
With B1 the Km (purified protein [1]) was 2.44 ± 0.30 mM, the kcat (purified protein [1]) was 6.84 ± 0.24 s⁻¹ and the kcat/Km (purified protein [1]) was 2800 ± 814 M⁻¹ s⁻¹. It also gave a Km (purified protein [2]) of 0.59 ± 0.07 mM, a kcat (purified protein [2]) of 8 ± 0.22 s⁻¹ and a kcat/Km (purified protein [2]) of 13600 ± 3140 M⁻¹ s⁻¹. For the same protein, the Km (purified protein [3]) was 0.68 ± 0.04 mM, the kcat (purified protein [3]) was 3.84 ± 0.06 s⁻¹ and the kcat/Km (purified protein [3]) was 8070 ± 1520 M⁻¹ s⁻¹. It also gave a Km (purified protein [4]) of 4.69 ± 0.41 mM, a kcat (purified protein [4]) of 4.4 ± 0.12 s⁻¹ and a kcat/Km (purified protein [4]) of 938 ± 293 M⁻¹ s⁻¹. For the same protein, the Km (purified protein [5]) was 1.55 ± 0.20 mM, the kcat (purified protein [5]) was 1.79 ± 0.07 s⁻¹ and the kcat/Km (purified protein [5]) was 1160 ± 338 M⁻¹ s⁻¹. For the same protein, the Km (purified protein [6]) was 1.27 ± 0.18 mM, the kcat (purified protein [6]) was 7 ± 0.31 s⁻¹ and the kcat/Km (purified protein [6]) was 5510 ± 1720 M⁻¹ s⁻¹. For the same protein, the Km (purified protein [7]) was 4.36 ± 0.42 mM, the kcat (purified protein [7]) was 4 s⁻¹ and the kcat/Km (purified protein [7]) was 915 M⁻¹ s⁻¹. It also gave a Km (purified protein [8]) of 3.74 ± 0.46 mM, a kcat (purified protein [8]) of 3.47 s⁻¹ and a kcat/Km (purified protein [8]) of 928 M⁻¹ s⁻¹.
